Experimental findings from US20260116920A1 (PEPTIDREAM, published 2026) are described below.

To fix the notation:
B1: 894_3149 (peptide)
peptide: {CH2CO}-AV[NMePhe(3-Cl)]VWNY[Phe(4-OMe)(3)]IIRRF[NMeY]C
modifications: thioether N-15; not fully specified (C-terminus)
B2: 849_0412 (peptide)
peptide: {CH2CO}-AV[NMePhe(3-Cl)]VWNY[F4aao]IIQR[F3COO(PEG4Me)″][MeF4COO(PEG4Me)″]C-NH2
modifications: thioether N-15; also: linker PEG4c, attachment site not given here
B3: 849_0401 (peptide)
peptide: {CH2CO}-AV[NMePhe(3-Cl)]VWNY[F4aao]II[E(PEG4Me)][KCOpipzaa]F[NMeY]C-NH2
modifications: thioether N-15; also: linker PEG4c, place not given here
B4: 849_0400 (peptide)
peptide: {CH2CO}-AV[NMePhe(3-Cl)]V[Trp(1-CH2CO)]NY[F4aao]II[E(PEG4Me)][KCOpipzaa]F[NMeY]C-NH2
modifications: thioether N-15; also: linker PEG4c, place not given here
B5: 849_0405 (peptide)
peptide: {CH2CO}-AV[NMePhe(3-Cl)]VWNY[F4aao]II[E(PEG4Me)][Nle(6-morpholino)]F[NMeY]C-NH2
modifications: thioether N-15; also: linker PEG4c, attachment site not given here
B6: 849_0403 (peptide)
peptide: {CH2CO}-AV[NMePhe(3-Cl)]VWN[3Pal(6-NH2)][F4aao]II[E(PEG4Me)][KCOpipzaa][4Pal][NMeY]C-NH2
modifications: thioether N-15; also: linker PEG4c, attachment site not given here
B7: 894_0252 (peptide)
peptide: {CH2CO}-AV[NMeF]V[Trp(5-Cl)]NYYIIR[dR]FYC-NH2
modifications: thioether N-15; not fully specified (residue 14); also: linker PEG4c, place not given here
B8: 849_0409 (peptide)
peptide: {CH2CO}-AV[NMePhe(3-Cl)]VWNY[F4aao]II[E(PEG4Me)]R[E(PEG4Me)][NMeY]C-NH2
modifications: thioether N-15; also: linker PEG4c, attachment site not given here
B9: 849_0415 (peptide)
peptide: {CH2CO}-AV[NMePhe(3-Cl)]V[Trp(7-aza)]NY[F4aao]II[E(PEG4Me)]R[F3COO(PEG4Me)][NMeY]C-NH2
modifications: thioether N-15; also: linker PEG4c, attachment site not given here
B10: 849_0417 (peptide)
peptide: {CH2CO}-AV[NMePhe(3-Cl)]V[Trp(7-aza)]NY[F4aao]IIQR[F3COO(PEG4Me)][MeF3COO(PEG4Me)″]C-NH2
modifications: thioether N-15; also: linker PEG4c, place not given here
B11: 849_0410 (peptide)
peptide: {CH2CO}-AV[NMePhe(3-Cl)]VWNY[F4aao]II[E(PEG4Me)]R[E(PEG4Me)][NMeY]C-NH2
modifications: thioether N-15; also: linker G-ds-ds-ds-ds-ds, attachment site not given here
B12: 894_0256 (peptide)
peptide: {CH2CO}-AV[NMePhe(4-F)]V[Trp(5-Cl)]NYYIIR[dR]FYC-NH2
modifications: thioether N-15; not fully specified (residue 14); also: linker PEG4c, place not given here
B13: 894_0260 (peptide)
peptide: {CH2CO}-AV[NMePhe(4-F)]V[NMeW]NYYIIR[dR]FYC-NH2
modifications: thioether N-15; not fully specified (residue 14); also: linker PEG4c, place not given here
B14: 849_0411 (peptide)
peptide: {CH2CO}-AV[NMePhe(3-Cl)]VWNY[F4aao]II[E(PEG4Me)]R[F3COO(PEG4Me)″][NMeY]C-NH2
modifications: thioether N-15; also: linker PEG4c, attachment site not given here
B15: 849_0407 (peptide)
peptide: {CH2CO}-AV[NMePhe(3-Cl)]VWNY[F4aao]II[E(PEG4Me)][Lys(Me2)]F[NMeY]C-NH2
modifications: thioether N-15; also: linker PEG4c, attachment site not given here
B16: 894_0263 (peptide)
peptide: {CH2CO}-AV[NMeF]VWNYYIIK(MePEG4c)RFYC-NH2
modifications: thioether N-15; not fully specified (residue 14)
B17: 849_0408 (peptide)
peptide: {CH2CO}-AV[NMePhe(3-Cl)]VWNY[F4aao]II[E(PEG4Me)]QF[NMeY]C-NH2
modifications: thioether N-15; also: linker PEG4c, attachment site not given here
B18: 849_0416 (peptide)
peptide: {CH2CO}-AV[NMePhe(3-Cl)]V[Trp(7-aza)]NY[F4aao]IIQR[F3COO(PEG4Me)][MeF4COO(PEG4Me)]C-NH2
modifications: thioether N-15; also: linker PEG4c, attachment site not given here
notes: also called 894_0416
B19: 894_0267 (peptide)
peptide: {CH2CO}-AV[NMePhe(4-F)]V[Trp(5-Cl)]NYYII[NMeR]K(MePEG4c)FYC-NH2
modifications: thioether N-15; not fully specified (residue 14)
B20: 849_0398 (peptide)
peptide: {CH2CO}-AV[NMePhe(3-Cl)]VWNY[F4aao]II[E(PEG4Me)]RF[NMeY]C-NH2
modifications: thioether N-15; also: linker PEG4c, place not given here
B21: 849_0406 (peptide)
peptide: {CH2CO}-AV[NMePhe(3-Cl)]VWNY[F4aao]II[E(PEG4Me)]KF[NMeY]C-NH2
modifications: thioether N-15; also: linker PEG4c, attachment site not given here
B22: 849_0402 (peptide)
peptide: {CH2CO}-AV[NMePhe(3-Cl)]V[Trp(1-CH2CO)]N[3Pal(6-NH2)][F4aao]II[E(PEG4Me)]R[4Pal][NMeY]C-NH2
modifications: thioether N-15; also: linker PEG4c, place not given here
B23: 849_0414 (peptide)
peptide: {CH2CO}-AV[NMePhe(3-Cl)]VWNY[F4aao]IIQR[F3COO(PEG4Me)][MeF3COO(PEG4Me)″]C-NH2
modifications: thioether N-15; also: linker G-ds-ds-ds-ds-ds, attachment site not given here
B24: 849_0413 (peptide)
peptide: {CH2CO}-AV[NMePhe(3-Cl)]VWNY[F4aao]IIQR[F3COO(PEG4Me)″][MeF3COO(PEG4Me)]C-NH2
modifications: thioether N-15; also: linker PEG4c, attachment site not given here
B25: 849_0418 (peptide)
peptide: {CH2CO}-AV[NMePhe(3-Cl)]V[Trp(7-aza)]NY[F4aao]IIERFYC-NH2
modifications: thioether N-15; not fully specified (residues 11, 14); also: linker PEG4c, place not given here
B26: 894_0264 (peptide)
peptide: {CH2CO}-AV[NMeF]VWNYYIIRK(MePEG4c)FYC-NH2
modifications: thioether N-15; not fully specified (residue 14)

Starred links: 1 amine or outer side, 2 acyl side, 3 side chain; linkers in the order of their positions; H or OH if unused. Positions of bridges follow the written chain, without caps; N, C: chain ends. Non-standard residues stand in square brackets, D forms with d. Primed or numbered codes have the meaning given here. No end group written: not given here. *: point of attachment. MeF3COO(PEG4Me) = (S)-3-(3-((2,5,8,11-tetraoxatridecan-13-yl)carbamoyl)phenyl)-2-(methylamino)propanoic acid, COCCOCCOCCOCCNC(=O)c1cccc(C[C@@H](C(=O)[*:2])N(C)[*:1])c1; MeF4COO(PEG4Me)″ = N-methyl-4-carboxy-Phe with the carboxyl amidated by a methyl-capped PEG4 amine, COCCOCCOCCOCCNC(=O)c1ccc(C[C@@H](C(=O)[*:2])N(C)[*:1])cc1; F3COO(PEG4Me) = (S)-3-(3-((2,5,8,11-tetraoxatridecan-13-yl)carbamoyl)phenyl)-2-aminopropanoic acid, COCCOCCOCCOCCNC(=O)c1cccc(C[C@H](N[*:1])C(=O)[*:2])c1; F3COO(PEG4Me)″ = 3-carboxy-Phe with the carboxyl amidated by a methyl-capped PEG4 amine, COCCOCCOCCOCCNC(=O)c1cccc(C[C@H](N[*:1])C(=O)[*:2])c1; E(PEG4Me) = (S)-18-amino-15-oxo-2,5,8,11-tetraoxa-14-azanonadecane-19-oic acid, COCCOCCOCCOCCNC(=O)CC[C@H](N[*:1])C(=O)[*:2]; MeF4COO(PEG4Me) = N-methyl Phe with 4-carboxamide to PEG4Me amine, COCCOCCOCCOCCNC(=O)c1ccc(C[C@@H](C(=O)[*:2])N(C)[*:1])cc1; KCOpipzaa = N6-(4-(carboxymethyl)piperazine-1-carbonyl)-L-lysine, O=C(NCCCC[C@H](N[*:1])C(=O)[*:2])N1CCN(CC(=O)[*:3])CC1; Phe(4-OMe)(3) = (S)-2-amino-3-(4-methoxyphenyl)propanoic acid (source code F4OMe), COc1ccc(C[C@H](N[*:1])C(=O)[*:2])cc1; F4aao = (S)-2-amino-3-(4-(carboxymethoxy)phenyl)propanoic acid, O=C([C@H](Cc1ccc(OCC(=O)[*:3])cc1)N[*:1])[*:2]; MePEG4c = K(MePEG4c) = (S)-20-amino-14-oxo-2,5,8,11-tetraoxa-15-azahenicosane-21-oic acid, COCCOCCOCCOCCC(=O)*; Trp(1-CH2CO) = O=C([C@H](Cc1cn(CC(=O)[*:3])c2ccccc12)N[*:1])[*:2]; MeF3COO(PEG4Me)″ = N-methyl analogue of F3COO(PEG4Me); Trp(5-Cl) = N[C@@H](Cc1c[nH]c2ccc(Cl)cc12)C(=O)O; Nle(6-morpholino) = N[C@@H](CCCCN1CCOCC1)C(=O)O; Trp(7-aza) = N[C@@H](Cc1c[nH]c2ncccc12)C(=O)O; NMePhe(3-Cl) = CN[C@@H](Cc1cccc(Cl)c1)C(=O)O; NMePhe(4-F) = CN[C@@H](Cc1ccc(F)cc1)C(=O)O; 3Pal(6-NH2) = Nc1ccc(C[C@H](N)C(=O)O)cn1; NMeW = CN[C@@H](Cc1c[nH]c2ccccc12)C(=O)O; NMeY = CN[C@@H](Cc1ccc(O)cc1)C(=O)O; Lys(Me2) = CN(C)CCCC[C@H](N)C(=O)O; NMeR = CN[C@@H](CCCNC(=N)N)C(=O)O; NMeF = CN[C@@H](Cc1ccccc1)C(=O)O; 4Pal = N[C@@H](Cc1ccncc1)C(=O)O

This assay deals with T1, human transferrin receptor (hTfR) (human, UniProt P02786 89-760).
T1 construct: used as 0.5 uM hTfR dimer solution, immobilised on an NTA sensor chip (Ni capture plus EDC/NHS coupling); also called human TfR; TfR1
T1 sequence (P02786 89-760 limits assumed): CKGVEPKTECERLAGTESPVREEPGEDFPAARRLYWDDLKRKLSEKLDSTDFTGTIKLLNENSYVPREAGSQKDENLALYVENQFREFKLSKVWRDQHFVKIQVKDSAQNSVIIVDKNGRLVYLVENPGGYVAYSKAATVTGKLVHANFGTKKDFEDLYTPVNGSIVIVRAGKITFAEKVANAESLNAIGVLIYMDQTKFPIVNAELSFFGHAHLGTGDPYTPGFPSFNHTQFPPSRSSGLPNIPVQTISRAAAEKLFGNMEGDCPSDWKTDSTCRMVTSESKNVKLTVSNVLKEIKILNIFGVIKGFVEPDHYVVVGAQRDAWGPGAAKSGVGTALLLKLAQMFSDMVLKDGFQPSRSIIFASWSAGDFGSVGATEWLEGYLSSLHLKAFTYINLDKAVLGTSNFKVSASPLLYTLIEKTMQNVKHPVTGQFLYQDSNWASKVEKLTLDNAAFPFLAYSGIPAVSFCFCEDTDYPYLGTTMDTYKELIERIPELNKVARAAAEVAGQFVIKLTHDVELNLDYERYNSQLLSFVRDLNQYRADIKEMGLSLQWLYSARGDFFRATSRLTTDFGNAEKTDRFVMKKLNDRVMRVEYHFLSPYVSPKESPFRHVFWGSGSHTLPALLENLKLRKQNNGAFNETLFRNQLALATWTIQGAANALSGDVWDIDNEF
The assay is described as follows: SPR; B = KD 1-100 nM. As for the experimental part:
NTA sensor chip (Global Life Sciences Technologies Japan K.K.) was inserted into BiacoreT200 (Global Life Sciences Technologies Japan K.K.), then the priming operation was performed three times by using running buffer containing: 10 mM HEPES pH 8.0 (Nacalai Tesque, Inc.), 150 mM NaCl (Nacalai Tesque, Inc.), 0.05% Tween 20 (Nacalai Tesque, Inc.), 0.1% BSA (SIGMA-ALDRICH) and 1.0% DMSO (FUJIFILM Wako Pure Chemical Corporation), and equilibrated at a flow rate of 30 μL/min. 350 mM EDTA solution was reacted at a flow rate of 10 μL/min for 60 seconds, 0.5 mM […] solution (Kishida Chemical Co., Ltd.) was reacted at a flow rate of 10 μL/min for 60 seconds, and then the NTA sensor chip was washed with 3 mM EDTA solution (Nacalai Tesque, Inc.) at a flow rate of 10 μL/min for 60 seconds. After mixing 50 μL each of 60 mM EDC solution (Global Life Science Technologies Japan K.K.) and 650 mM NHS solution (Global Life Science Technologies Japan K.K.), the reaction was carried out at a flow rate of 10 μL/min for 420 seconds. 150 μL of 0.5 μM hTfR dimer solution was prepared by dilution with running buffer and reacted at a flow rate of 10 μL/min for 300 seconds to immobilize hTfR on the NTA sensor chip. For the human transferrin receptor (hTfR), recombinant hTfR described in Example 2 of WO2018/124121 was used. After immobilization, capping was performed by reacting with 1.0 M ethanolamine solution (Global Life Sciences Technologies Japan K.K.) at a flow rate of 10 μL/min for 420 seconds. Peptide lysate prepared in DMSO solution to 10 mM was diluted with running buffer to be a final concentration of 10 μM peptide lysate, then peptide solutions of 100 nM, 50 nM, 25 nM, 10 nM, and 5 nM were prepared. Using the above samples, the kinetics of the peptide against hTfR was obtained by SPR measurement.
The kinetic evaluation model was single-cycle kinetics, and curve fitting was performed using Biacore T200 Evaluation Software Version 3.0 (Global Life Science Technologies Japan K.K.). The binding of the peptide to hTfR was evaluated by performing curve fitting on the obtained sensorgram by least squares method and obtaining the KD value.
Turning to B1, the KD lay in the range of 0.001 to 0.1 µM.

With B2, the KD was in the range of 0.001 to 0.1 µM.

B3 yielded a KD of 0.001 to 0.1 µM.

The molecule B4 had an equilibrium dissociation constant (KD) of 0.001 to 0.1 µM.

In turn, B5 had a KD of 0.001 to 0.1 µM.

B6 showed a KD of 0.001 to 0.1 µM.

As for B7, the KD fell in the range of 0.001 to 0.1 µM.

For the molecule B8, the KD was in the range of 0.001 to 0.1 µM.

For the molecule B9, the KD lay in the range of 0.001 to 0.1 µM.

The molecule B10 displayed a KD of 0.001 to 0.1 µM.

The molecule B11 showed a KD of 0.001 to 0.1 µM.

With B12, the KD fell in the range of 0.001 to 0.1 µM.

B13 yielded a KD of 0.001 to 0.1 µM.

In the case of B14, the KD was 0.001 to 0.1 µM.

For B15, the KD was 0.001 to 0.1 µM.

The molecule B16 showed a KD of 0.001 to 0.1 µM.

Molecule B17 had a KD of 0.001 to 0.1 µM.

In turn, B18 had a KD of 0.001 to 0.1 µM.

B19: the KD lay within 0.001 to 0.1 µM.

Molecule B20 registered a KD of 0.001 to 0.1 µM.

B21 yielded a KD of 0.001 to 0.1 µM.

Consider B22, for which the KD lay in the range of 0.001 to 0.1 µM.

The molecule B23 came in with a KD of 0.001 to 0.1 µM.

The molecule B24 gave a KD of 0.001 to 0.1 µM.

With B25, the KD lay within 0.001 to 0.1 µM.

As for B26, the KD lay within 0.001 to 0.1 µM.

The term KD denotes the constant that tells how readily two partners part at equilibrium. Read a low KD as a tighter complex.
